Test results reported in US20030082135A1, “Pathway of RANTES-mediated chemokine synthesis in astrocytes and methods of use therefor” (priority 2001, published 2003).

B1: eotaxin: recombinant mouse chemokine, RANTES-related, purchased from R&D System (protein, UniProt P48298 24-97, looked up)
Eotaxin: HPGSIPTSCCFIMTSKKIPNTLLKSYKRITNNRCTLKAIVFKTRLGKEICADPKKKWVQDATKHLDQKLQTPKP

Tests used:
[1] = system: primary neonatal mouse astrocyte cultures; test: RNase protection assay (RPA) for chemokine/cytokine transcripts in astrocyte cultures; type: cell-based
Experimental: Astrocyte isolation and culture. […] RNA isolation and RNase protection assay (RPA). […] RNase protection assays (RPA) for chemokine message were conducted with multi-probe templates according to the manufacture's protocol (RiboQuant assay kit, BD-PharMingen, San Diego, Calif.). Gels were scanned and radioactive bands quantitated using a phosphoimager (Molecular Dynamics, Sunnyvale, Calif.). Levels of uniformly expressed housekeeping genes large ribosomal subunit protein 32-3A (L32) or glyceraldehyde-3-phosphate dehydrogenase (GAPDH), were used for normalization. The value of each chemokine receptor band divided by the value of the indicated housekeeping gene band in the same sample yielded the relative intensity. Normalized receptor expression represents the ratio of the relative intensity following treatment with chemokine versus the relative intensity of medium alone. Treatment with pharmacological inhibitors. Astrocytes were washed and resuspended in serum-and insulin-free complete medium and starved overnight. Cells were treated at 37° C. for 1 h with 100 ng/ml Pertussis toxin (PTx) before addition of RANTES or IL-1. […] The cells were harvested after a 3 h incubation with RANTES; RNA was prepared and assayed by RPA.

[2] = system: MEK, ERK1/2, p90RSK, p38, SAPK/JNK phosphorylation in astrocytes; test: Western blotting of phosphorylated MAP kinase pathway proteins in astrocyte lysates; type: cell-based, mouse
Experimental: SDS-PAGE and Western blotting. Astrocytes were treated for the indicated time with media or 100 ng/ml RANTES, eotaxin, or other materials as indicated. Cells (3×10^5 in Examples 1-3, or 2×10^4 in later Examples) were resuspended in 100 μl buffer (50 mM HEPES, pH 7.5, 150 mM NaCl, 2 mM EDTA, 2 mM EGTA, 1% Triton X-100, 50 mM Sodium fluoride, 5 mM Sodium pyrophosphate, 50 mM Sodium β-glycerophosphate, 1 mM Sodium Ortho-vanadate, 1 mM DTT, 1 mM PMSF, 10 μg/ml Leupeptin, and 10 μg/ml Aprotinin). Protein concentration of the whole cell extract was determined by BCA protein assay kit (Pierce, Rockford, Ill.). Samples (10 μg) were loaded and separated on a 10% SDS-polyacrylamide gel. After transfer to Hybond ECL nitrocellulose membrane (Amersham Pharmacia Biotech Inc, Piscataway, N.J.) or Zeta-probe blotting membranes (Bio-Rad, Richmond Calif.) blots were blocked overnight with 5% BSA at 4° C., and probed with the antibody indicated. Antibody against unphosphorylated or phosphorylated erk (Cell Signaling, Beverly, Mass.) was used at 1 μg/ml. Appropriate anti-immunoglobulin reagents were used to develop the blots by enhanced chemiluminescence (Amersham Pharmacia Biotech Inc, Piscataway, N.J.).
Little is known about the signaling mechanisms involved in astrocyte respones to chemokines. To examine components of the RANTES signal transduction pathway, phosphorylation of the MAP kinase kinase (MEK) and mitogen activated protein (MAP) kinases was examined. To minimize basal kinase activity, astrocytes were starved of serum for at least 3 h before treatment with chemokine. Whole cell lysates were separated by SDS-PAGE and examined by Western blot. Antibodies that specifically react with phosphorylated MEK or phosphorylated extracellular signal-related kinase (ERK) were used to detect the active kinases.

PKA = PKA activity assay on lysates of treated astrocytes; type: cell-based, mouse
Experimental: PKA activity assay. PKA activity was determined using a commercially available kit (Calbiochem, San Diego, Calif.) according to manufacturer's recommendations. Primary mouse astrocytes were grown in 6-well plates and then stimulated as described and lysed in 100 μl buffer (same buffer used for Western blotting) for 30 min. Five μl of the lysates were incubated with 20 μl PKA reaction mixture at 30° C. for 30 min. The reaction was terminated by adding 10 μl stop solution and ^32P radioactivity was counted.

astrocytes [3] = system: astrocytes
[4] = system: CXCR4, CX3CR1, CCR1, CCR5 transcripts in astrocytes; test: RPA for chemokine receptor transcripts in astrocytes; type: cell-based, mouse; conditions: average, pooled results of 3-4 experiments
Experimental: RNA isolation and RNase protection assay (RPA). RNA was prepared as in Luo, Y., et al. 1999. J Immunol 163:3985. RNase protection assays (RPA) for chemokine message were conducted with multi-probe templates according to the manufacture's protocol (RiboQuant assay kit, BD-PharMingen, San Diego, Calif.). Gels were scanned and radioactive bands quantitated using a phosphoimager (Molecular Dynamics, Sunnyvale, Calif.). Levels of uniformly expressed housekeeping genes large ribosomal subunit protein 32-3A (L32) or glyceraldehyde-3-phosphate dehydrogenase (GAPDH), were used for normalization. The value of each chemokine receptor band divided by the value of the indicated housekeeping gene band in the same sample yielded the relative intensity. Normalized receptor expression represents the ratio of the relative intensity following treatment with chemokine versus the relative intensity of medium alone.
Treatment with the RANTES-related chemokines RANTES or eotaxin, or with TNF-α also found to down-regulate expression of CX3CR1 transcripts. In addition, CXCR4 mRNA levels were decreased, while the levels of CCR1 transcripts were elevated. In contrast, little or no regulation of CCR5 was noted. The pooled results of 3-4 experiments indicate eotaxin caused an average 60% decrease in CXCR4 (P less than 0.01) and a 70% decrease in CX3CR1 mRNA (P less than 0.02) (FIG. 8.B). The effects of RANTES stimulation were similar with an average 70 and 90% reduction in CXCR4 and CX3CR1 transcripts, respectively (P less than 0.01).

[5] = system: cultured mouse astrocytes; test: RT-PCR for KC message in astrocytes; type: cell-based
astrocytes [6] = test: ELISA of KC, TNF-α and MCP-1 protein in astrocyte culture supernatants; type: cell-based, mouse; conditions: 48 h, 1.5 to 100 ng/ml tested

Molecule	effect on RANTES-induced chemokine/cytokine gene expression ([1]; increasing doses, 1 h pretreatment, 100 ng/ml RANTES 3 h)	effect on MEK and erk1/2 phosphorylation induced by RANTES [2]	effect on PKA activity (PKA)	effect on astrocyte viability or expression of the housekeeping genes L32 and GAPDH (astrocytes [3])	production of chemokine transcripts by astrocytes from mice deficient for CCR1, CCR2, CCR3, or CCR5 ([1]; 100 ng/ml)	expression of TNF-α, RANTES, KC, MIP-1α, MIP-2, and MCP-1 transcripts ([1]; BALB/cJ neonatal astrocytes, chemokine for 6 h)	ability to induce chemokine transcripts after boiling ([1]; boiled for 30 min before incubation with astrocytes)	decrease in CX3CR1 mRNA [4]	decrease in CXCR4 mRNA [4]	synthesis of KC message [5]	concentration inducing KC protein (astrocytes [6])
O=C1Nc2ccc(I)cc2/C1=C/c1cc(Br)c(O)c(Br)c1 [Raf-1 inhibitor, reference compound]	blocked gene expression in a dose dependent fashion	blocked	neither U0126 nor Raf-1 inhibitor decreased PKA activity	failed to affect	–	–	–	–	–	–	–
B1	–	–	–	–	specifically responded	up-regulated	completely destroyed	70%	60%	induce synthesis of KC message	≥ 25 ng/mL
